Numbering of substitutions follows the chain as printed. Names may count otherwise.

In assay [1] the target is T1, recombinant 10× His-tagged CD4 protein (extracellular domain of human CD4, GS linker, 10× histidine tag) (human, UniProt P01730 26-390).
T1 construct: also called recombinant CD4; sCD4 (analyte)
Description: biolayer interferometry.

In assay [2] the target is T1, recombinant 10× His-tagged CD4 protein …. In words: BLI KD set against the earlier estimate of KD >2 mM between CD4 and HLA class II.
For assay [3] the target is unchanged. In words: biolayer interferometry (Octet Red), biotinylated DP4 on streptavidin sensors, CD4 as analyte, steady-state fit.
Assay [4] addresses T2, soluble CD4 (sCD4): human CD4 extracellular domain fused with a 6×His tag via a GS linker, dimerized with a … (human, UniProt P01730 26-396).
T2 construct: also called soluble CD4 protein; soluble CD4 dimer
Description: flow cytometry, K562 cells.

In assay [5] the target is T2, soluble CD4 (sCD4): human CD4 …. Description: flow cytometry, sCD4 MFI of K562 cells.

B1: biotinylated recombinant wild-type DP4 (extracellular domains of DPA1*01:03 and wild-type DPB1*04:01, leucine zippers) (other)
MHC II alpha: IKADHVSTYAAFVQTHRPTGEFMFEFDEDEMFYVDLDKKETVWHLEEFGQAFSFEAQGGLANIAILNNNLNTLIQRSNHTQATNDPPEVTVFPKEPVELGQPNTLICHIDKFFPPVLNVTWLCNGELVTEGVAESLFLPRTDYSFHKFHYLTFVPSAEDFYDCRVEHWGLDQPLLKHWEAQEPIQMPETTETGGGGSLEIRAAFLRQRNTALRTEVAELEQEVQRLENEVSQYETRYGPLGGGKGSHHHHHHHHHH
MHC II beta: RATPENYLFQGRQECYAFNGTQRFLERYIYNREEFARFDSDVGEFRAVTELGRPAAEYWNSQKDILEEKRAVPDRMCRHNYELGGPMTLQRRVQPRVNVSPSKKGPLQHHNLLVCHVTDFYPGSIQVRWFLNGQEETAGVVSTNLIRNGDWTFQILVMLEMTPQQGDVYTCQVEHTSLDSPVTVEWKAQSDSARSKGGGGSLEIEAAFLERENTALETRVAELRQRVQRLRNRVSQYRTRYGPLGGGKGSGLNDIFEAQKIEWHE
notes: also called biotinylated wild-type DP4 (ligand)
For B1, the binding result in assay [1] is reported as “no binding (tested: 26 µM)”.

B2: biotinylated recombinant DP4^[change]/[change] (extracellular domains of DPA1*01:03 and DPB1*04:01 [ (other)
MHC II alpha: B1 MHC II alpha
MHC II beta: B1 MHC II beta with L112W, V141M
On to B2, for which the “fold improvement in the binding affinity” value in assay [2] is at least 200 fold. Besides, the Kd in assay [3] was found to be 8.9 µM.

B3: wild-type DP4 (DPA1*01:03 / DPB1*04:01) on K562 cells (other, human)
MHC II alpha: not shown
MHC II beta: not shown
notes: whole, on cells; also called HLA-DP4
As to B3, the binding result in assay [4] is on record as “no binding”.

B4: V114M (other)
DP alpha chain: IKADHVSTYAAFVQTHRPTGEFMFEFDEDEMFYVDLDKKETVWHLEEFGQAFSFEAQGGLANIAILNNNLNTLIQRSNHTQATNDPPEVTVFPKEPVELGQPNTLICHIDKFFPPVLNVTWLCNGELVTEGVAESLFLPRTDYSFHKFHYLTFVPSAEDFYDCRVEHWGLDQPLLKHWEAQEPIQMPETTET
DP beta chain: RATPENYLFQGRQECYAFNGTQRFLERYIYNREEFARFDSDVGEFRAVTELGRPAAEYWNSQKDILEEKRAVPDRMCRHNYELGGPMTLQRRVQPRVNVSPSKKGPLQHHNLLMCHVTDFYPGSIQVRWFLNGQEETAGVVSTNLIRNGDWTFQILVMLEMTPQQGDVYTCQVEHTSLDSPVTVEWKAQSDSARSK
notes: also called DP4 with the single V114M substitution on K562 cells
For the molecule B4, in assay [5], the binding result is on record as “no binding”.

B5: M158I (other)
DP alpha chain: B4 DP alpha chain
DP beta chain: B4 DP beta chain with M114V, M158I
notes: also called DP4 with the single M158I substitution on K562 cells
For the molecule B5, the binding result in assay [5] is “no binding”.

B6: V114M/M158I (other)
DP alpha chain: B4 DP alpha chain
DP beta chain: B4 DP beta chain with M158I
notes: also called DP4 reversion mutant on K562 cells
Take B6: in assay [5], the binding result is “no binding”.

B7: L112W/V114M (other)
DP alpha chain: B4 DP alpha chain
DP beta chain: B4 DP beta chain with L112W
notes: as for B6
With B7, the binding result in assay [5] is listed as “no binding”.

B8: L112W/V114M/M158I (other)
DP alpha chain: B4 DP alpha chain
DP beta chain: B4 DP beta chain with L112W, M158I
notes: as for B6
B8: the binding result in assay [5] is recorded as “no binding”.

B9: L112W/M158I (other)
DP alpha chain: B4 DP alpha chain
DP beta chain: B4 DP beta chain with L112W, M114V, M158I
notes: as for B6
On to B9, for which, in assay [5], the binding result is reported as “no binding”.

These data come from US20220281948A1 (UNIVERSITY HEALTH NETWORK, published 2022).
